In general, stoichiometry N refers to a count of units in the complex or per binding partner.

The values below come from publication PMC8683598.

Test [1] addresses FLAG-T. castaneum methoprene-tolerant (T. castaneum). The test is described as follows: SEC-MALS; purified complex loaded at ~5 mg/ml, Superdex 200 10/300, 50 mM Tris, 350 mM NaCl, 10 uM methoprene, 2 mM MgCl2, 100 uM TCEP, pH 8.0; peak fractions checked by SDS-PAGE.
Test [2] shares this target. The test is described as follows: native MS; purified methoprene-bound complex exchanged into 200 mM ammonium acetate pH 7.4, nano-ESI, Synapt G2Si.

For “His6-Tribolium castaneum taiman (TcTAI) (domain or fragment)”, the stoichiometry N in test [1] and in test [2] was 1 each time.
